Key:
[1] = target: human natriuretic polypeptide receptor hNPR1 (the membrane-bound guanylate cyclase receptor of BNP) (human) (UniProt P16066); assay: cell-based or functional assay
[2] = target: T1, human natriuretic polypeptide receptor hNPR1 (the membrane-bound guanylate cyclase receptor of BNP) (human, UniProt P16066 33-1061); assay: cell-based or functional assay
T1 sequence (looked up): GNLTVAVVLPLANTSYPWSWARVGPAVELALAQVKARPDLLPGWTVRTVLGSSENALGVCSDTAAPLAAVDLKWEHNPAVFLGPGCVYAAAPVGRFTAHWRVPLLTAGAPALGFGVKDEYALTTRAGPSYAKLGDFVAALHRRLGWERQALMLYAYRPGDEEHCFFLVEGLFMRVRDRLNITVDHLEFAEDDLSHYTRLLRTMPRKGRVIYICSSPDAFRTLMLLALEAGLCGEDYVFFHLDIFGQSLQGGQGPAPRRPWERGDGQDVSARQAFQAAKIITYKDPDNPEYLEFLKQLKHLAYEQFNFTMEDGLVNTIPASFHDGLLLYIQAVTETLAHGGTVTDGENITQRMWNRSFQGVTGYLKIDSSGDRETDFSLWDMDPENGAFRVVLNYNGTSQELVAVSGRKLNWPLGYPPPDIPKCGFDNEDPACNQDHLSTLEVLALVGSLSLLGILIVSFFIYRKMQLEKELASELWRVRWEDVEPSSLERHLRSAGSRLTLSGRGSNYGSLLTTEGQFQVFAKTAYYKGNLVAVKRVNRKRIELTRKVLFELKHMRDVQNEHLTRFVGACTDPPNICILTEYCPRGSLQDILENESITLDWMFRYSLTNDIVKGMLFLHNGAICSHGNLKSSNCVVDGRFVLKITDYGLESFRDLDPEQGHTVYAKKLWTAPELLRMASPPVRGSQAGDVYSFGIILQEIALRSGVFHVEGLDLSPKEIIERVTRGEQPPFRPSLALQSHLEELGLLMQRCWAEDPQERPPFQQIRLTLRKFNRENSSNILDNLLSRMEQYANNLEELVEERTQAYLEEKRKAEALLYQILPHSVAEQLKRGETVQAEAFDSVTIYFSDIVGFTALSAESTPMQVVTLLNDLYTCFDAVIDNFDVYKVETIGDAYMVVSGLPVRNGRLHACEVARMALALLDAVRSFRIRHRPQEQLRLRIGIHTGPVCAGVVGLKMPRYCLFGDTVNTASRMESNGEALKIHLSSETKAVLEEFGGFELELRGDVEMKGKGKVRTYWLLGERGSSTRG

PAS600-hBNP(1-32) (ligand), sequence (chain): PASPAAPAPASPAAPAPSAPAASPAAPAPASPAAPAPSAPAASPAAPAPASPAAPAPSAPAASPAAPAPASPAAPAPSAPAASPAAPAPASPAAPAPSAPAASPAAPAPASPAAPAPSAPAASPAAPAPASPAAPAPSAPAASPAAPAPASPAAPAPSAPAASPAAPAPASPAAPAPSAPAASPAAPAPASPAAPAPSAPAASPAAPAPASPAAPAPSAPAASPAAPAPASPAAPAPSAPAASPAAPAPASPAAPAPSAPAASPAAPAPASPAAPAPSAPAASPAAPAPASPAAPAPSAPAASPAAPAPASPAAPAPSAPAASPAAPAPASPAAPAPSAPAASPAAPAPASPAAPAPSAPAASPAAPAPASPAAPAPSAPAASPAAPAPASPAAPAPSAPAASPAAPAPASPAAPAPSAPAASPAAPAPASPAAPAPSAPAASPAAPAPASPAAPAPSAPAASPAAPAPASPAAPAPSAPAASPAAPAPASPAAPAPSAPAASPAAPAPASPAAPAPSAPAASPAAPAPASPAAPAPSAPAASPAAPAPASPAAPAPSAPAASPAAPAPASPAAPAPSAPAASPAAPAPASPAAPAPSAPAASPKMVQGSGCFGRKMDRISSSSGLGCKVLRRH
PAS400-hBNP(1-32) (ligand), sequence (chain): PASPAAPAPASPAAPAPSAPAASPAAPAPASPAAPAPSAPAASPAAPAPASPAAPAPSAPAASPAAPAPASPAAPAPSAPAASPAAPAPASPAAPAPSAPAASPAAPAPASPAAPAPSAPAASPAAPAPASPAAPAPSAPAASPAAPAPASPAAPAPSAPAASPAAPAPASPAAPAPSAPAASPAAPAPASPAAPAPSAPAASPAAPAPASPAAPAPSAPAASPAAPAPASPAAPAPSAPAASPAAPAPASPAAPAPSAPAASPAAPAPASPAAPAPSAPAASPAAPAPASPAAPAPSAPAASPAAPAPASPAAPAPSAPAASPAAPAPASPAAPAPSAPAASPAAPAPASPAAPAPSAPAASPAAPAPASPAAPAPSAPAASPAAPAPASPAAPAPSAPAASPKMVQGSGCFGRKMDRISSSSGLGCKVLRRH
PAS800-hBNP(1-32) (ligand), sequence (chain): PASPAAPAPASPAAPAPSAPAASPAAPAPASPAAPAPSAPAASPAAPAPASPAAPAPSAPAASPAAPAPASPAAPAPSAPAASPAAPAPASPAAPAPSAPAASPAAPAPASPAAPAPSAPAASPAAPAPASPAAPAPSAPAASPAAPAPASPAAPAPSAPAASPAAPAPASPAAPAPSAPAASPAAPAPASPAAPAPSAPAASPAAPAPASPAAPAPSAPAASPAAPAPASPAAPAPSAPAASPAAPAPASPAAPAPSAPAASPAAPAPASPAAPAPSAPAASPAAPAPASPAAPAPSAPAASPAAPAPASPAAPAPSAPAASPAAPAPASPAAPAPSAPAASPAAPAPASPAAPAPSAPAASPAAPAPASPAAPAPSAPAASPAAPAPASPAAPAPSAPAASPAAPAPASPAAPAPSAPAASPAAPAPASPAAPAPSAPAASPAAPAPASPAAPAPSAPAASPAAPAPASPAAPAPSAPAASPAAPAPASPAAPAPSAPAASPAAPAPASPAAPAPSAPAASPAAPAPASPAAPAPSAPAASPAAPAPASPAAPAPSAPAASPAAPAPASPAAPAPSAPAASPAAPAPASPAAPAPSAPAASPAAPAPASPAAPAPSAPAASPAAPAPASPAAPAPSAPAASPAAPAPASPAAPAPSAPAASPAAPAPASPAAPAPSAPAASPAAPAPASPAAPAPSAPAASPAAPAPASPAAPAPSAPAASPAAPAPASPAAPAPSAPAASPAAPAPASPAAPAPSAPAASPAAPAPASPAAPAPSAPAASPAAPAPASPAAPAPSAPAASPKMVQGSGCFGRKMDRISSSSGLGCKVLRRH

Molecule	Log dose ratio from hBNP(1-32) (NPR-1 cGMP assay, HEK293T/17) [1]	Maximum % control (cGMP HTRF, % response to BNP1-32 10 µM) [1]	PEC50 (n) (cGMP HTRF, transiently transfected HEK293T/17 cells) [1]	Potency fold loss from hBNP(1-32) (NPR-1 cGMP assay, HEK293T/17) [1]	fold reduction in potency relative to PAS200 (NPR-1 cGMP assay, HEK293T/17) [1]	pEC50 [1]	log EC50 (cGMP, TR-FRET, % Activation, CHO-K1 cells transfected with hNPR1) [2]	log dose ratio from hBNP(1-32) (hNPR1 cGMP agonist assay) [2]	potency fold loss from hBNP(1-32) (hNPR1 cGMP agonist assay) [2]
PAS400-hBNP(1-32) (ligand)	1.58	97.3%	6.49	38.2 fold	5.2 fold	6.49	–	–	–
PAS600-hBNP(1-32) (ligand)	1.5	97.4%	6.57	31.8 fold	–	6.57	–	–	–
PAS800-hBNP(1-32) (ligand)	1.54	89.1%	6.53	34.3 fold	–	6.53	–	–	–
Compound 3, P-(SEQ ID No:2)10-A-hBNP(6-32) (PAS attached to N-terminus of glutamine 6) (ligand) PASPAAPAPASPAAPAPSAPAASPAAPAPASPAAPAPSAPAASPAAPAPASPAAPAPSAPAASPAAPAPASPAAPAPSAPAASPAAPAPASPAAPAPSAPAASPAAPAPASPAAPAPSAPAASPAAPAPASPAAPAPSAPAASPAAPAPASPAAPAPSAPAASPAAPAPASPAAPAPSAPAASPAAPAPASPAAPAPSAPAAQGSGCFGRKMDRISSSSGLGCKVLRRH	–	–	–	–	–	–	-7.31	-1.92	83 fold
Compound 2, P-(SEQ ID No:2)10-A-hBNP(3-32) (PAS attached to the alpha amino group of the N-terminal lysine 3) (ligand) PASPAAPAPASPAAPAPSAPAASPAAPAPASPAAPAPSAPAASPAAPAPASPAAPAPSAPAASPAAPAPASPAAPAPSAPAASPAAPAPASPAAPAPSAPAASPAAPAPASPAAPAPSAPAASPAAPAPASPAAPAPSAPAASPAAPAPASPAAPAPSAPAASPAAPAPASPAAPAPSAPAASPAAPAPASPAAPAPSAPAAKMVQGSGCFGRKMDRISSSSGLGCKVLRRH	–	–	–	–	–	–	-7.84	-1.39	25 fold
Compound 5, hBNP(1-30)-(SEQ ID No:2)10-A (PAS attached to carboxy group of the C-terminal arginine 30) (ligand) SPKMVQGSGCFGRKMDRISSSSGLGCKVLRASPAAPAPASPAAPAPSAPAASPAAPAPASPAAPAPSAPAASPAAPAPASPAAPAPSAPAASPAAPAPASPAAPAPSAPAASPAAPAPASPAAPAPSAPAASPAAPAPASPAAPAPSAPAASPAAPAPASPAAPAPSAPAASPAAPAPASPAAPAPSAPAASPAAPAPASPAAPAPSAPAASPAAPAPASPAAPAPSAPAA	–	–	–	–	–	–	-7.28	-1.95	89 fold

From US20240199716A1 (ANTLIA BIOSCIENCE, published 2024)
